Source: patent US20230002496A1 (STAIDSON BEIJING BIOPHARMACEUTICALS, published 2023)
Numbering of substitutions follows the chain as printed.

T1: human GM-CSFRα-6His (human, UniProt P15509 23-320)
T1 construct: pTT5-GMRa-6his (ECD), made in 293F cells; also called GMRah; GMRa-6his(ECD)
T1 sequence: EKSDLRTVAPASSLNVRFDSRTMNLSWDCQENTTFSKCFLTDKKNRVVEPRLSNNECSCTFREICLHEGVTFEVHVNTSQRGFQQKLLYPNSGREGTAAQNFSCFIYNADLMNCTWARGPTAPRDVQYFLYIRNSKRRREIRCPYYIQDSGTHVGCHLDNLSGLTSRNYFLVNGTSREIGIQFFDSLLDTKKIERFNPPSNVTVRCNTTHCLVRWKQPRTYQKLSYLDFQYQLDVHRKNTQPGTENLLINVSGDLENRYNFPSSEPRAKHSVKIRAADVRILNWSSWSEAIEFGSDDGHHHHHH

T2: human GM-CSFRα, full length on cells (human, UniProt P15509 23-400)
T2 sequence: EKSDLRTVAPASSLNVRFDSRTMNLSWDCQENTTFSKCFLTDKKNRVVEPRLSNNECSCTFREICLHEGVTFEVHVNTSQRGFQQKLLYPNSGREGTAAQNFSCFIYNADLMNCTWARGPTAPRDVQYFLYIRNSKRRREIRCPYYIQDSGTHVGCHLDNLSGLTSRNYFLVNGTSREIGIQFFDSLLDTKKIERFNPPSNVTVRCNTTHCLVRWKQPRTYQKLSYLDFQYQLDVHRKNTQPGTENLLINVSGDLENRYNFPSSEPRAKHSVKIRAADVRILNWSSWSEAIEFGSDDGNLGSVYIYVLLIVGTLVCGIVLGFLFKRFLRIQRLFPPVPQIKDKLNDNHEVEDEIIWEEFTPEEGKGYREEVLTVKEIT

B1: E01-IgG1 (antibody, V domains shown)
VH: QMQLVQSGAEVKKPGASVKVSCKVSGHTLTELSIHWVRQAPGKGLEWMGGFDPEDGETNYAQKSQGRVTMTGDTSTDTAYLELSSLRSEDTALYYCATGRYCSTDTCYGFDYWGQGTLVTVSS
VL: EIVMTQSPATLSLSPGERATLSCRASQSVSSYLAWYQQKPGQAPRLLIYGASSRATGIPDRFSGSGSGTDFTLTISRLEPEDFAVYYCQQYDNWPPTFGQGTKLEIK
notes: human IgG1, human kappa; also called E1
B2: E35-scFv LS26N (scFv, V domains shown)
VH: B1 VH with H27Y, N59I, S64F, C102T, T104L, D105A, C107T
VL: B1 VL with S26N, P96Y
B3: E35-scFv LS26A (scFv, V domains shown)
VH: B1 VH with H27Y, N59I, S64F, C102T, T104L, D105A, C107T
VL: B1 VL with S26A, P96Y
B4: E35-scFv LS26K (scFv, V domains shown)
VH: B1 VH with H27Y, N59I, S64F, C102T, T104L, D105A, C107T
VL: B1 VL with S26K, P96Y
B5: E35-scFv LS26R (scFv, V domains shown)
VH: B1 VH with H27Y, N59I, S64F, C102T, T104L, D105A, C107T
VL: B1 VL with S26R, P96Y
B6: E35-scFv LS26I (scFv, V domains shown)
VH: B1 VH with H27Y, N59I, S64F, C102T, T104L, D105A, C107T
VL: B1 VL with S26I, P96Y
B7: E35-scFv LS26Q (scFv, V domains shown)
VH: B1 VH with H27Y, N59I, S64F, C102T, T104L, D105A, C107T
VL: B1 VL with S26Q, P96Y
B8: E35-scFv LS26G (scFv, V domains shown)
VH: B1 VH with H27Y, N59I, S64F, C102T, T104L, D105A, C107T
VL: B1 VL with S26G, P96Y
B9: E35-scFv LS26T (scFv, V domains shown)
VH: B1 VH with H27Y, N59I, S64F, C102T, T104L, D105A, C107T
VL: B1 VL with S26T, P96Y
B10: E35-scFv LS26H (scFv, V domains shown)
VH: B1 VH with H27Y, N59I, S64F, C102T, T104L, D105A, C107T
VL: B1 VL with S26H, P96Y
B11: E35-scFv LS26M (scFv, V domains shown)
VH: B1 VH with H27Y, N59I, S64F, C102T, T104L, D105A, C107T
VL: B1 VL with S26M, P96Y
B12: E35-scFv LS26C (scFv, V domains shown)
VH: B1 VH with H27Y, N59I, S64F, C102T, T104L, D105A, C107T
VL: B1 VL with S26C, P96Y
B13: E35-scFv LQ27Y (scFv, V domains shown)
VH: B1 VH with H27Y, N59I, S64F, C102T, T104L, D105A, C107T
VL: B1 VL with Q27Y, P96Y
B14: E35-scFv LQ27P (scFv, V domains shown)
VH: B1 VH with H27Y, N59I, S64F, C102T, T104L, D105A, C107T
VL: B1 VL with Q27P, P96Y
B15: E35-scFv LQ27A (scFv, V domains shown)
VH: B1 VH with H27Y, N59I, S64F, C102T, T104L, D105A, C107T
VL: B1 VL with Q27A, P96Y
B16: E35-scFv LQ27I (scFv, V domains shown)
VH: B1 VH with H27Y, N59I, S64F, C102T, T104L, D105A, C107T
VL: B1 VL with Q27I, P96Y
B17: E35-scFv LQ27F (scFv, V domains shown)
VH: B1 VH with H27Y, N59I, S64F, C102T, T104L, D105A, C107T
VL: B1 VL with Q27F, P96Y
B18: E35-scFv LQ27T (scFv, V domains shown)
VH: B1 VH with H27Y, N59I, S64F, C102T, T104L, D105A, C107T
VL: B1 VL with Q27T, P96Y
B19: E35-scFv LQ27R (scFv, V domains shown)
VH: B1 VH with H27Y, N59I, S64F, C102T, T104L, D105A, C107T
VL: B1 VL with Q27R, P96Y
B20: E35-scFv LQ27V (scFv, V domains shown)
VH: B1 VH with H27Y, N59I, S64F, C102T, T104L, D105A, C107T
VL: B1 VL with Q27V, P96Y
B21: E35-scFv LQ27L (scFv, V domains shown)
VH: B1 VH with H27Y, N59I, S64F, C102T, T104L, D105A, C107T
VL: B1 VL with Q27L, P96Y
B22: E35-scFv LQ27E (scFv, V domains shown)
VH: B1 VH with H27Y, N59I, S64F, C102T, T104L, D105A, C107T
VL: B1 VL with Q27E, P96Y
B23: E35-scFv LQ27S (scFv, V domains shown)
VH: B1 VH with H27Y, N59I, S64F, C102T, T104L, D105A, C107T
VL: B1 VL with Q27S, P96Y
B24: E35-scFv LQ27C (scFv, V domains shown)
VH: B1 VH with H27Y, N59I, S64F, C102T, T104L, D105A, C107T
VL: B1 VL with Q27C, P96Y
B25: E35-scFv LS31T (scFv, V domains shown)
VH: B1 VH with H27Y, N59I, S64F, C102T, T104L, D105A, C107T
VL: B1 VL with S31T, P96Y
B26: E35-scFv LS31R (scFv, V domains shown)
VH: B1 VH with H27Y, N59I, S64F, C102T, T104L, D105A, C107T
VL: B1 VL with S31R, P96Y
B27: E35-scFv LS31A (scFv, V domains shown)
VH: B1 VH with H27Y, N59I, S64F, C102T, T104L, D105A, C107T
VL: B1 VL with S31A, P96Y
B28: E35-scFv LS31H (scFv, V domains shown)
VH: B1 VH with H27Y, N59I, S64F, C102T, T104L, D105A, C107T
VL: B1 VL with S31H, P96Y
B29: E35-scFv LS31Q (scFv, V domains shown)
VH: B1 VH with H27Y, N59I, S64F, C102T, T104L, D105A, C107T
VL: B1 VL with S31Q, P96Y
B30: E35-scFv LS31P (scFv, V domains shown)
VH: B1 VH with H27Y, N59I, S64F, C102T, T104L, D105A, C107T
VL: B1 VL with S31P, P96Y
B31: E35-scFv LS31M (scFv, V domains shown)
VH: B1 VH with H27Y, N59I, S64F, C102T, T104L, D105A, C107T
VL: B1 VL with S31M, P96Y
B32: E35-VL93D-IG4 (antibody, IgG4, V domains shown)
VH: B1 VH with H27Y, N59I, S64F, C102T, T104L, D105A, C107T
VL: B1 VL with N93D, P96Y
B33: E35-VH28H-IG4 (antibody, IgG4, V domains shown)
VH: B1 VH with H27Y, T28H, N59I, S64F, C102T, T104L, D105A, C107T
VL: B1 VL with P96Y
B34: E35-VH28E-IG4 (antibody, IgG4, V domains shown)
VH: B1 VH with H27Y, T28E, N59I, S64F, C102T, T104L, D105A, C107T
VL: B1 VL with P96Y
B35: E35-VH28H-VL93L-IG4 (antibody, IgG4, V domains shown)
VH: B1 VH with H27Y, T28H, N59I, S64F, C102T, T104L, D105A, C107T
VL: B1 VL with N93L, P96Y
B36: E35-VH28H-VL30L-IG4 (antibody, IgG4, V domains shown)
VH: B1 VH with H27Y, T28H, N59I, S64F, C102T, T104L, D105A, C107T
VL: B1 VL with S30L, P96Y
B37: E35-VH28H-VL30C-IG4 (antibody, IgG4, V domains shown)
VH: B1 VH with H27Y, T28H, N59I, S64F, C102T, T104L, D105A, C107T
VL: B1 VL with S30C, P96Y
B38: E35-VH28E-VL30L-IG4 (antibody, IgG4, V domains shown)
VH: B1 VH with H27Y, T28E, N59I, S64F, C102T, T104L, D105A, C107T
VL: B1 VL with S30L, P96Y
B39: E35-VH28E-VL30C-IG4 (antibody, IgG4, V domains shown)
VH: B1 VH with H27Y, T28E, N59I, S64F, C102T, T104L, D105A, C107T
VL: B1 VL with S30C, P96Y
B40: E35-VH28H-VL30L-93D-IG4 (antibody, IgG4, V domains shown)
VH: B1 VH with H27Y, T28H, N59I, S64F, C102T, T104L, D105A, C107T
VL: B1 VL with S30L, N93D, P96Y

Biological target: T1, human GM-CSFRα-6His
Assay: ELISA on human GM-CSFRα, antibodies as human IgG1; x axis 'Log Ab concentration', no unit

Row | Binder | binding result
1 | B1 | binds

Biological target: T2, human GM-CSFRα, full length on cells
Assay: cell-based or functional assay

Row | Binder | IC50, TF-1 cell proliferation [µg/mL]
2 | B2 | 0.054
3 | B3 | 0.062
4 | B4 | 0.069
5 | B5 | 0.072
6 | B6 | 0.073
7 | B7 | 0.075
8 | B8 | 0.078
9 | B9 | 0.081
10 | B10 | 0.089
11 | B11 | 0.089
12 | B12 | 0.114
13 | B13 | 0.065
14 | B14 | 0.097
15 | B15 | 0.104
16 | B16 | 0.105
17 | B17 | 0.113
18 | B18 | 0.113
19 | B19 | 0.117
20 | B20 | 0.12
21 | B21 | 0.128
22 | B22 | 0.135
23 | B23 | 0.138
24 | B24 | 0.142
25 | B25 | 0.06
26 | B26 | 0.069
27 | B27 | 0.078
28 | B28 | 0.106
29 | B29 | 0.117
30 | B30 | 0.139
31 | B31 | 0.156

Biological target: T2, human GM-CSFRα, full length on cells
Assay: cell-based or functional assay
Remark: another data set of the same source

Row | Binder | IC50, TF-1 cell proliferation [µg/mL]
32 | B32 | 0.0371
33 | B33 | 0.0569
34 | B34 | 0.0307
35 | B35 | 0.0163
36 | B36 | 0.0296
37 | B37 | 0.0431
38 | B38 | 0.0268
39 | B39 | 0.0208
40 | B40 | 0.0241
